According to publication PMC13499124, “Insights into how JIP3 and JIP4 adaptor proteins relieve the auto-inhibited form of the kinesin-1 motor” (The Journal of Biological Chemistry, 2026):
Values joined by “and” are separate entries in the source; they are usually repeats but may differ in a detail not shown here. Identical values can stand only once.

Key:
[1] = target: T1, KIF5B-CC3b-CC4-dt fragment (human, UniProt P33176 771-963); experiment: MST; labelled JIP3/4 fragment (Blue-NHS dye) constant at 20 nM, KIF5B fragment titrated 120 pM to 4 uM (up to 38.2 uM when needed); 50 mM Tris pH 8.0, 200 mM NaCl, 10 mM MgCl2, 0.05% Tween 20; room temperature; Monolith NT.115, premium capillaries, MST-on 0.5-1.5 s; 1:1 Kd fit; three replicates; the paper calls its affinities relative measurements; conditions: both partners purified
T1 construct: kinesin-1 heavy chain KIF5B, human, NP_004512.1, residues 771-963 (last part of CC3, CC4 and distal tail); pET28 plasmid, NdeI/XhoI; the methods call it CC3-CC4-dt; also called KIF5B-CC3-CC4-dt; KIF5B-Tail; source: E. coli Rosetta, purified (His-Trap, Superdex 75 gel filtration); not shown: His6, N-terminal, kept
T1 sequence (P33176 771-963): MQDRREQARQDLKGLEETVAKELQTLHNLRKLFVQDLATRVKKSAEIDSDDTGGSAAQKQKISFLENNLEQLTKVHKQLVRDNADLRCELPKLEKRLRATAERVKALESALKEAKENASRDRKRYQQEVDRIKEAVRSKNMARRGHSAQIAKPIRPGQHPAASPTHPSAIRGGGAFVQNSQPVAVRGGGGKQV

[2] = target: T2, KIF5B-CC3b-CC4 fragment, 6-histidine tag removed (human, UniProt P33176 771-914); experiment: MST + other fluorescence titration; JIP3-N-RH1-lz3 wild type and alanine mutants labelled with NHS-fluorescein, constant at 20 nM; KIF5B-CC3b-CC4 without His tag titrated; 50 mM Tris pH 8.0, 200 mM NaCl, 10 mM MgCl2, 0.05% Tween 20; room temperature; Monolith NT.115; the change in overall fluorescence intensity was used for the Kd; 1:1 fit; conditions: both partners purified
T2 construct: kinesin-1 heavy chain KIF5B, human, NP_004512.1, residues 771-914 (last part of CC3 and CC4); source: E. coli Rosetta, purified (His-Trap, Superdex 75 gel filtration); not shown: His6, N-terminal, cleaved
T2 sequence (P33176 771-914): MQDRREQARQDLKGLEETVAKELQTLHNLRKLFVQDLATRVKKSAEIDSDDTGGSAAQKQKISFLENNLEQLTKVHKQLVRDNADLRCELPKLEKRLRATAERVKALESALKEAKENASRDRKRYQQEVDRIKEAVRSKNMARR

[3] = target: the molecule itself; experiment: SEC-MALS; JIP3/4-Nter fragments in solution, single peak; dimer; conditions not shown (Fig. S1B, Table S2)
[4] = target: T1, KIF5B-CC3b-CC4-dt fragment; experiment: MST; labelled JIP3/4 fragment (Blue-NHS dye) constant at 20 nM, KIF5B fragment titrated 120 pM to 4 uM (up to 38.2 uM when needed); 50 mM Tris pH 8.0, 200 mM NaCl, 10 mM MgCl2, 0.05% Tween 20; room temperature; Monolith NT.115, premium capillaries, MST-on 0.5-1.5 s; 1:1 Kd fit; three replicates; the paper calls its affinities relative measurements; conditions: both partners purified; remark: listed apart in the source
[5] = target: T3, KIF5B-CC3b-CC4 fragment, with N-terminal 6-histidine tag (human, UniProt P33176 771-914); experiment: as above; conditions: both partners purified
T3 construct: kinesin-1 heavy chain KIF5B, human, NP_004512.1, residues 771-914 (last part of CC3 and CC4); also called CC3-CC4; source: E. coli Rosetta, purified (His-Trap, Superdex 75 gel filtration); not shown: His6, N-terminal, kept
T3 sequence (P33176 771-914): as above

Kd [1] [nM]	Kd [2] [nM]	Kd [4]	Kd [5] [nM]	Binder	stoichiometry N [3]
198 ± 27.3				JIP3-N-RH1-lz3 H45G-C46R (domain or fragment, mouse, UniProt Q9ESN9-1 1-100, looked up, labelled with a fluorescent dye in the MST assay (legend of Figure 4), JIP3, mouse, NP_038959.2, residues 1-100 (N-RH1-lz3), residues changed to those of JIP4; also called JIP3-H45G-C46R; source: E. coli Rosetta, purified (His-Trap, gel filtration, thrombin cleavage, gel filtration); not shown: His tag, N-terminal, cleaved; thioredoxin, N-terminal, cleaved) MMEIQMDEGGGVVVYQDDYCSGSVMSERVSGLAGSIYREFERLIGRYDEEVVKELMPLVVNVLENLDSVLSENQEHEVELELLREDNEQLLTQYEREKAL	
	215 ± 57.3			JIP3-N-RH1-lz3 E27A (domain or fragment, mouse, UniProt Q9ESN9-1 1-100, looked up, labelled with NHS-fluorescein (Thermo Fisher Scientific), JIP3, mouse, NP_038959.2, residues 1-100 (N-RH1-lz3); also called JIP3-E27A; source: E. coli Rosetta, purified (His-Trap, gel filtration, thrombin cleavage, gel filtration); not shown: His tag, N-terminal, cleaved; thioredoxin, N-terminal, cleaved) MMEIQMDEGGGVVVYQDDYCSGSVMSARVSGLAGSIYREFERLIHCYDEEVVKELMPLVVNVLENLDSVLSENQEHEVELELLREDNEQLLTQYEREKAL	
20.6 ± 2.6	148 ± 21.4	14.7 nM and 18.3 nM	77.7 ± 12	JIP3-N-RH1-lz3 fragment (domain or fragment, mouse, UniProt Q9ESN9-1 1-100, looked up, labelled with the dye NHS-NT-488 (Blue-NHS, NanoTemper) in Tables 1 and 3; labelled with NHS-fluorescein (Thermo Fisher Scientific) in Table 2, JIP3, mouse, NP_038959.2, residues 1-100 (N-terminus, RH1 domain and first three heptad repeats of LZI); Unlabelled in SEC-MALS; also called JIP3-WT; wild-type JIP3-N-RH1-lz3; source: E. coli Rosetta, purified (His-Trap, gel filtration, thrombin cleavage, gel filtration); not shown: His tag, N-terminal, cleaved; thioredoxin, N-terminal, cleaved) MMEIQMDEGGGVVVYQDDYCSGSVMSERVSGLAGSIYREFERLIHCYDEEVVKELMPLVVNVLENLDSVLSENQEHEVELELLREDNEQLLTQYEREKAL	2
29.9 ± 3				JIP3-N-RH1-lz3 N61A (domain or fragment, mouse, UniProt Q9ESN9-1 1-100, looked up, labelled with a fluorescent dye in the MST assay (legend of Figure 4), JIP3, mouse, NP_038959.2, residues 1-100 (N-RH1-lz3), residue changed to that of JIP4; also called JIP3-N61A; Asn61 mutant; source: E. coli Rosetta, purified (His-Trap, gel filtration, thrombin cleavage, gel filtration); not shown: His tag, N-terminal, cleaved; thioredoxin, N-terminal, cleaved) MMEIQMDEGGGVVVYQDDYCSGSVMSERVSGLAGSIYREFERLIHCYDEEVVKELMPLVVAVLENLDSVLSENQEHEVELELLREDNEQLLTQYEREKAL	
46.8 ± 6.8				JIP3-N-RH1-lz3 E77Q (domain or fragment, mouse, UniProt Q9ESN9-1 1-100, looked up, labelled with a fluorescent dye in the MST assay (legend of Figure 4), JIP3, mouse, NP_038959.2, residues 1-100 (N-RH1-lz3), residue changed to that of JIP4; also called JIP3-E77Q; source: E. coli Rosetta, purified (His-Trap, gel filtration, thrombin cleavage, gel filtration); not shown: His tag, N-terminal, cleaved; thioredoxin, N-terminal, cleaved) MMEIQMDEGGGVVVYQDDYCSGSVMSERVSGLAGSIYREFERLIHCYDEEVVKELMPLVVNVLENLDSVLSENQEHQVELELLREDNEQLLTQYEREKAL	
		18.8 ± 4 nM		JIP3-N-RH1-LZI fragment (domain or fragment, mouse, UniProt Q9ESN9-1 1-187, looked up, labelled with the dye NHS-NT-488 (Protein Labelling Kit Blue-NHS, NanoTemper) in the MST assay, Unlabelled in SEC-MALS; also called JIP3-N-RH1-LZ1; JIP3-Nter; source: E. coli Rosetta, purified (His-Trap, gel filtration, thrombin cleavage, gel filtration); not shown: His tag, N-terminal, cleaved; thioredoxin, N-terminal, cleaved) MMEIQMDEGGGVVVYQDDYCSGSVMSERVSGLAGSIYREFERLIHCYDEEVVKELMPLVVNVLENLDSVLSENQEHEVELELLREDNEQLLTQYEREKALRKQAEEKFIEFEDALEQEKKELQIQVEHYEFQTRQLELKAKNYADQISRLEERESEMKKEYNALHQRHTEMIQTYVEHIERSKMQQV	2
		50.5 ± 12.9 nM		JIP3-RH1-LZI fragment (domain or fragment, UniProt Q9ESN9 22-187, looked up, labelled with the dye NHS-NT-488 (Protein Labelling Kit Blue-NHS, NanoTemper) in the MST assay, JIP3, RH1 domain followed by the entire LZI coiled-coil, without the N-terminus; also called RH1-LZ1) GSVMSERVSGLAGSIYREFERLIHCYDEEVVKELMPLVVNVLENLDSVLSENQEHEVELELLREDNEQLLTQYEREKALRKQAEEKFIEFEDALEQEKKELQIQVEHYEFQTRQLELKAKNYADQISRLEERESEMKKEYNALHQRHTEMIQTYVEHIERSKMQQV	
		79.3 ± 15.9 nM		JIP3-RH1-lz3 fragment (domain or fragment, mouse, UniProt Q9ESN9-1 22-100, looked up, labelled with the dye NHS-NT-488 (Protein Labelling Kit Blue-NHS, NanoTemper) in the MST assay, JIP3, mouse, NP_038959.2, residues 22-100 (RH1 domain and first three heptad repeats of LZI); Unlabelled in SEC-MALS; source: E. coli Rosetta, purified (His-Trap, gel filtration, thrombin cleavage, gel filtration); not shown: His tag, N-terminal, cleaved; thioredoxin, N-terminal, cleaved) GSVMSERVSGLAGSIYREFERLIHCYDEEVVKELMPLVVNVLENLDSVLSENQEHEVELELLREDNEQLLTQYEREKAL	2
777 ± 146				JIP4-N-RH1-lz3 fragment (domain or fragment, UniProt O60271 1-95, looked up, labelled with a fluorescent dye in the MST assay (legend of Figure 4), JIP4, N-terminus (17 residues), RH1 domain and first three heptad repeats of LZI; also called wild-type JIP4-N-RH1-lz3) MELEDGVVYQEEPGGSGAVMSERVSGLAGSIYREFERLIGRYDEEVVKELMPLVVAVLENLDSVFAQDQEHQVELELLRDDNEQLITQYEREKAL	2
